This passage reports normalised SPOT signal, Boehringer light units (BLU); mean over the file's lines of this peptide results from PMC314469, “Protein Interaction Networks by Proteome Peptide Scanning” (PLoS Biology, 2004).

The target in assay [1] is endophilin SH3 (SH3G2_HUMAN), Q99962. As to the kind of experiment: SPOT array.
Assay [2] deals with T1, amphyphisin SH3 (AMPH_HUMAN), P49418.
T1 chain: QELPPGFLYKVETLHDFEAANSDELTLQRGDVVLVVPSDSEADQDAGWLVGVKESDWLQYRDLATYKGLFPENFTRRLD
As to the kind of experiment: SPOT array.

Take NSEHFHRPLRRSEA [O15050 583-596]: the normalised SPOT signal, Boehringer light units (BLU); mean over the file's lines of this peptide worked out at 199 in assay [1] and 512 in assay [2].
For the molecule MSSAPRRPAKGADS [Q99654 1-14], the results for the normalised SPOT signal, Boehringer light units (BLU); mean over the file's lines of this peptide in assay [1] and in assay [2] were 222 and 178, respectively.
Take MSTPLRRPSASETV [Q9P2M8 940-953]: the normalised SPOT signal, Boehringer light units (BLU); mean over the file's lines of this peptide was 228 in assay [1] and 18.3 in assay [2].
For the molecule MQFSIRRPKLPSSE [Q96DH7 35-48], the normalised SPOT signal, Boehringer light units (BLU); mean over the file's lines of this peptide was found to be 532 in assay [1] and 118 in assay [2].
As for NSFIPKRPIPTIKD [Q96TH1 910-923], the normalised SPOT signal, Boehringer light units (BLU); mean over the file's lines of this peptide in assay [1] was 556; in assay [2], 49.2.
The like results for ARARPRRPREETLT [P53539 138-151] were, in that order, 181 and 42.3.
The like results for MLLLPPRPPHPRSS [Q9NPP7 87-101] were, in that order, 11500 and 3000.
MTVAIRRPGVPGAP [Q96IB4 40-53]: the normalised SPOT signal, Boehringer light units (BLU); mean over the file's lines of this peptide in assay [1] was found to be 80.3; in assay [2] it was 55.2.
NDRFPFRPSRGRPT [Q9Y3I1 502-515]: the normalised SPOT signal, Boehringer light units (BLU); mean over the file's lines of this peptide in assay [1] turned out to be 4510; in assay [2], 2600.
For NEPLFVRPPKGSPQ [Q9H251 2718-2731], the normalised SPOT signal, Boehringer light units (BLU); mean over the file's lines of this peptide in assay [1] was determined as 154; in assay [2], 215.
Turning to MLLSPRRPTVEKRA [O94947 263-276], the normalised SPOT signal, Boehringer light units (BLU); mean over the file's lines of this peptide is 8300 in assay [1] and 344 in assay [2].
The like results for MNGLPPRPPLPESL [Q15428 237-251] were, in that order, 9000 and 58.1.
The like results for MTTTPERPRRGIPG [P27708 1830-1843] were, in that order, 2030 and 9560.
With MLDMFKRPTDPPEY [Q13423 581-594], the figures for the normalised SPOT signal, Boehringer light units (BLU); mean over the file's lines of this peptide in assay [1] and in assay [2] were 56.5 and 34.5, respectively.
For NGAEPKRPSRPINI [Q9Y6X2 222-235], in that order: 105 and 3920.
MNMTPRRPGPTRKH [P10747 192-205]: the normalised SPOT signal, Boehringer light units (BLU); mean over the file's lines of this peptide in assay [1] stood at 2530; in assay [2] it was 76.1.
The like results for MSLLLRRPPGREAY [P25705 324-337] were, in that order, 63.4 and 15.9.
As to NEDYPRRPLTRARS [Q9HC40 116-129], the values for the normalised SPOT signal, Boehringer light units (BLU); mean over the file's lines of this peptide in assay [1] and in assay [2] were 690 and 393, respectively.
The like results for NETGLSRPRRTAMS [Q15598 1736-1749] were, in that order, 154 and 742.
For NSQAPRRPWLASHM [O43284 274-287], in that order: 6860 and 88.2.
The like results for MWGFLKRPVVVTAD [Q9Y6A1 1-14] were, in that order, 121 and 37.8.
On to NGVEPKRPSRPINI [O75925 239-252], for which the figures for the normalised SPOT signal, Boehringer light units (BLU); mean over the file's lines of this peptide in assay [1] and in assay [2] were 35.6 and 4650, respectively.
Take MLLRPRRPPPLAPP [O75833 1-14]: the normalised SPOT signal, Boehringer light units (BLU); mean over the file's lines of this peptide in assay [1] worked out at 5190; in assay [2], 2650.
Take MLLRLARPAKLSEL [Q92876 108-121]: the normalised SPOT signal, Boehringer light units (BLU); mean over the file's lines of this peptide in assay [1] turned out to be 342; in assay [2], 346.
As for MTSSLQRPWRVPWL [Q13873 1-14], the normalised SPOT signal, Boehringer light units (BLU); mean over the file's lines of this peptide in assay [1] was 227; in assay [2] it was 506.
Take NFGDLGRPGRGGRG [Q9Y367 343-356]: the normalised SPOT signal, Boehringer light units (BLU); mean over the file's lines of this peptide worked out at 882 in assay [1] and 895 in assay [2].
Turning to AREEFRRPRESLLN [Q96JI4 1223-1236], the normalised SPOT signal, Boehringer light units (BLU); mean over the file's lines of this peptide is 27.4 in assay [1] and 19.8 in assay [2].
In the case of NAALFPRPERYNPQ [P19099 413-426], the results for the normalised SPOT signal, Boehringer light units (BLU); mean over the file's lines of this peptide in assay [1] and in assay [2] were 63.6 and 699, respectively.
For the molecule MVPGPARPPGSSWD [Q9BRN8 20-34], the normalised SPOT signal, Boehringer light units (BLU); mean over the file's lines of this peptide in assay [1] turned out to be 33.6; in assay [2], 45.4.
The like results for MRKYPNRPSKTPPH [P18146 321-334] were, in that order, 1570 and 222.
The like results for NGTQILRPPKVLSP [Q14676 96-109] were, in that order, 150 and 5.
Regarding NEPHIKRPMNAFMV [P35711 136-149], the normalised SPOT signal, Boehringer light units (BLU); mean over the file's lines of this peptide amounted to 0 in assay [1] and 46.1 in assay [2].
The like results for NFQPPKRPFKRMNY [O43776 380-393] were, in that order, 525 and 793.
For ARAALRRPLSGQAL [Q96GZ7 12-25], the normalised SPOT signal, Boehringer light units (BLU); mean over the file's lines of this peptide is 85.3 in assay [1] and 87.1 in assay [2].
MLQAPIRPPKPQSS [O95600 103-116]: the normalised SPOT signal, Boehringer light units (BLU); mean over the file's lines of this peptide in assay [1] turned out to be 2740; in assay [2] it was 1050.
For NFGNLPRPGRGARG [Q9NYJ2 360-373], in that order: 1340 and 946.
Take AAQPPQKPPASYFA [O15399 995-1009]: the values for the normalised SPOT signal, Boehringer light units (BLU); mean over the file's lines of this peptide in assay [1] and in assay [2] were 125 and 45.4, respectively.
Turning to MLANPRRPIAQWHT [P21579 394-407], the figures for the normalised SPOT signal, Boehringer light units (BLU); mean over the file's lines of this peptide in assay [1] and in assay [2] were 122 and 108, respectively.
